The experiment deals with HA-tagged MARK2, baculovirus-expressed in Sf9 cells (Rattus norvegicus (Rat), UniProt O08679 1-722). The experiment is described as follows: cell-based or functional assay.
HA-tagged MARK2, baculovirus-expressed in Sf9 cells, sequence (O08679 other isoform, or with tags, fused parts or gaps limits assumed, form in doubt): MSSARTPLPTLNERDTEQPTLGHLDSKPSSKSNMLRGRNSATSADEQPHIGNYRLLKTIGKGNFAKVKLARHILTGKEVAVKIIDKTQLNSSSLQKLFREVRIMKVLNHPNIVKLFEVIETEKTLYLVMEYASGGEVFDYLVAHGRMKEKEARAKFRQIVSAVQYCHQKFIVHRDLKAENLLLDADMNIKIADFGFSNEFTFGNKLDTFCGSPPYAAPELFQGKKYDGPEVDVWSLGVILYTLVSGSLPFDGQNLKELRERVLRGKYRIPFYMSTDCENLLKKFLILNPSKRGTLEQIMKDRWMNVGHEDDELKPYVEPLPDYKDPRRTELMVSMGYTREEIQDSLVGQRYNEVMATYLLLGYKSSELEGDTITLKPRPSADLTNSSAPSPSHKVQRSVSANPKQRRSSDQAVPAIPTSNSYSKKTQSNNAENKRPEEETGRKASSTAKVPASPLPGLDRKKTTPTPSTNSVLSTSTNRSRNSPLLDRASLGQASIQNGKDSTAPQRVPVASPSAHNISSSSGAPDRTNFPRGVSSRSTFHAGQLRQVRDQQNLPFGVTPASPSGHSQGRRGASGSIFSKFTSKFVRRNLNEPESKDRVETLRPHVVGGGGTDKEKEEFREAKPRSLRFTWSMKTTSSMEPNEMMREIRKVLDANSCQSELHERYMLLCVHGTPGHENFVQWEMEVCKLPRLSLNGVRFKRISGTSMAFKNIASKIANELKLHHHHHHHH

B1: myc-tagged MARKK, baculovirus-expressed in Sf9 cells (enzyme, not shown: small tags and cut ends)
chain: MGHHHHHHHHHHSSGHIEGRHMPSTNRAGSLKDPEIAELFFKEDPEKLFTDLREIGHGSFGAVYFARDVRTNEVVAIKKMSYSGKQSTEKWQDIIKEVKFLQRIKHPNSIEYKGCYLREHTAWLVMEYCLGSASDLLEVHKKPLQEVEIAAITHGALQGLAYLHSHTMIHRDIKAGNILLTEPGQVKLADFGSASMASPANSFVGTPYWMAPEVILAMDEGQYDGKVDVWSLGITCIELAERKPPLFNMNAMSALYHIAQNESPTLQSNEWSDYFRNFVDSCLQKIPQDRPTSEELLKHMFVLRERPETVLIDLIQRTKDAVRELDNLQYRKMKKLLFQEAHNGPAVEAQEEEEEQDHGGGRTGTVNSVGSNQSIPSMSISASSQSSSVNSLPDASDDKSELDMMEGDHTVMSNSSVIHLKPEEENYQEEGDPRTRASDPQSPPQVSRHKSHYRNREHFATIRTASLVTRQMQEHEQDSELREQMSGYKRMRRQHQKQLMTLENKLKAEMDEHRLRLDKDLETQRNNFAAEMEKLIKKHQASMEKEAKVMANEEKKFQQHIQAQQKKELNSFLESQKREYKLRKEQLKEELNENQSTPKKEKQEWLSKQKENIQHFQAEEEANLLRRQRQYLELECRRFKRRMLLGRHNLEQDLVREELNKRQTQKDLEHAMLLRQHESMQELEFRHLNTIQKMRCELIRLQHQTELTNQLEYNKRRERELRRKHVMEVRQQPKSLKSKELQIKKQFQDTCKIQTRQYKALRNHLLETTPKSEHKAVLKRLKEEQTRKLAILAEQYDHSINEMLSTQALRLDEAQEAECQVLKMQLQQELELLNAYQSKIKMQAEAQHDRELRELEQRVSLRRALLEQKIEEEMLALQNERTERIRSLLERQAREIEAFDSESMRLGFSNMVLSNLSPEAFSHSYPGASSWSHNPTGGSGPHWGHPMGGTPQAWGHPMQGGPQPWGHPSGPMQGVPRGSSIGVRNSPQALRRTASGGRTEQGMSRSTSVTSQISNGSHMSYT
For B1, the “activity of immunoprecipitated MARK2 (phosphorylation of TR1) on co-expression in Sf9 cells” value is around 3 fold.
